# Assay results from the DeepSol protein solubility set.
# Assay: soluble on expression in E. coli; label from the status in PepcDB or PDB records
row,Sequence,soluble on expression in E. coli
1,MGSDKIHHHHHHMRPRILLYTGKGGVGKTSIAAATGALLSSKGHKTLIISTDPAHSLGDAFGMEIGHSIKQLADNLYGQEVSVVQSINEHWGELKDYLRSLFLSQGLDPVSADEIATLPGFEEASELLYLRNYYYDEEYDTIIMDSAPTGAALQLLSFPEVMTWYMDKLFPISRKTARVARPLLKPFVDIPLPEDAVFENIDLLYRQLTDIRKILTNNDVTSIRLVTNPDNMSYSETKRAYTYLLLYGYPVDAVIINKILSDETGDFFEKMRGSQKDIITEMENSFVDIKIFKARLLQEEPIGIKKLIELGKLIYGDEDPYKVFYKGTPIKYTKNGDRYILKIKMPFAEKEKLNLFNHGGELTIEIANWKRVFYLPESISDKRPVSAEYSNGYLNVILE,not soluble
2,MRDRTCVVPGCGATRGLHAHHIRHWQDGGATELANLVLVCPYHHRAHHRGLITITLEHHHHHH,not soluble
3,MDDLSPDSALPPAGSAQDNDAPRQLVVCIDGTSNRFGDQPTNVVRLYRSLSRDPRRVLAYYDQGVGTFGLKETLFEWQKFPSRIAGLAFGWGLKRNVEGAYRFLAEHYRPGDQIFLFGFSRGAYAVRVLAAMLRAVGLIDAHQPHLFDYAWTLLTTRMPPRDEDKRAGTRRRGPDFGLLGRFRKVFGRQVKVHFLGLFDTVTSVGWVYDPLTVPYSSNNEMVDVVRQALAIDECRCFFRQNLWFGEKDRKSDVLQVWFPGMHSDVGGGYAPKDSRLALVAFTWMLGEALEAGLHVDPARSRDQLRARSKQGPDPTAPILPVMTRPWRLAEWLPLLVWDRRSGNRAWRWSRGRPRSRPLEPVGQETRVKLHRSVQRRLDECPDYRPCNLPALERCDLIDDSPLLDGYRLEHHHHHH,not soluble
4,MGSDKIHHHHHHMTSQKYQSKTLKIAVVGDIHDQWEVEDGMALKHLGVDLVLFVGDFGNESVEVVRAIASLNIPKAAVMGNHDAWYTATEWGRKKCPYDRTKEDWVQEQLDLLGSAHVGYGKLDFPEWNLTVVGGRPFSWGGHEWRFADICKDRYGVTTLEESAQRIFASVKSAACETIIFLGHNGPSGLGDRPEDPCGKDWHPIGGDFGDPDLAEAISLTMTTGKQIALVTFGHMHHSLRHTKKELRKPIFKSPEGIVYLNAASVPRIVEGESGKLRNFSLVSLEAGEVTQASLIWVGEDFQVAKEEIFYERSTSVVPSV,not soluble
5,MIVSMKKLAQLLLPLLLPFSAEAGGQPDFCKSINHAGGRYTVCSFDPAKNTIRIYDQDHVSGQGYRNFADLSSALWRQHMFSVFAMNGGMYHSDYSPVGLFVENGVERSPVSTRGGWGNFHLLPNGVFYLDGNTAGVLETEAYLAADPKPDFATQSGPMLVIDGKLHPRFLPDSDSLKRRNGVGVSRDGMVHFAISETTVRFYDFGTLFRDVLDAPNALYLDGTISSVDIPAMNRRDQLFSMGPIIAVVDRVPDLEHHHHHH,not soluble
6,MAHHHHHHMASQKPEDVTVSDGMLANLEREFNEAMRALEGHVKFVCFREEYEKLHRALLNSHESEKRLVRRCQQLTQELMSNAAKMQAAVKLAQDDHTTIEALKKETEKAWRMVDVANEKDARAKETIKKLREEVFSLQEIVENGTELTPTQTATLEELKLEKKRMQSEYDELVKQMETLTRETFELGHKMKEAEEEMMKHQEELRRVTDREKTVRQEYEKELRARDRSNLQLREQLLLVQQREKELKSHEQLHSKLSSAVNLLRLQLQEDQNRRQALAQKIESAERQLYHTQQSYDDAVDTREALNERHREVRKEITEAEKKAVDITAEKQRTHRVRDNDYKELCRLVQQNEDIRRDQTNLERQRLNVEKRIEMARREKEDLCRAFEMMQREKDSLKKVSEKEREKMQIMKN,soluble
7,MTMRFSVLASGSTGNAFYIETDRQRLLVDAGLSGKQLEELFAEIGRHPKQLDALLVTHEHSDHIKGLGVLARKYRLPVYANEKTWRAMEQAVGDIPPEQKFVFPLGAVRTFGDVDVESFGVSHDAAEPMFYVFHYEGKKLALLTDTGYVSERIKKTIENADVFVFESNHDVGMLRMGRYPWSVKRRILSDVGHISNEEAGLALADVIGDRTKQIYLAHLSQDNNMKELARMTVTQVLEQKGLAVGARFRLYDTDPRRATALAYV,not soluble
8,MWITTTPWSKHSPNWVLADNGEKLIVPEIILGDAQGPTRNEWYIGLSSVLGFSFWSPDYDGVGTWLDAATQLNEQGGGDVITYSSGAHIVRTLLLAASQSNVHSTFTSKALGNDQTSSMTSSTTAVTVAKSGDGQQQTGEQKEEDWKDISKADLFKDDPYVLKNFGDSTTQAKMQSGGSTNSNGNGSQASLAFTKKALSLLKFLVDNKILKKDKVKEAIMNPDQYLSKRSKLDSNNQKPTKDDFIGSEFKDLYENAAKLNRFNSIWAEKDTDNAKFLITVVDSYFPVLPVPAAGLNETSPTLLKPWFQFRSAPSGNGTIRDYGFIPENK,soluble
